From paper PMC6693564, “RGG-motif self-association regulates eIF4G-binding translation repressor protein Scd6” (RNA Biology, 2019)

Assays:
[1] = target: T1, GSTScd6 (recombinant) (yeast, UniProt P45978 1-349); assay: pull-down; 450 nM purified proteins with glutathione sepharose beads, 2 h at 4°C, 50mM HEPES pH7, 100mM NaCl, 1mM DTT, 2mM MnCl2, 2mM MgCl2, 1% Triton-X100, 10% glycerol, 0.25mg/ml RNase A, 10mg/ml BSA; GST fusion as bait; anti-FLAG blot; for Figure 5e Scd6FLAG first incubated with Hmt1 with or without SAM; details: both partners purified
T1 construct: Scd6, yeast; also called full-length GSTScd6; source: E. coli BL21, purified (glutathione sepharose)
T1 sequence (looked up): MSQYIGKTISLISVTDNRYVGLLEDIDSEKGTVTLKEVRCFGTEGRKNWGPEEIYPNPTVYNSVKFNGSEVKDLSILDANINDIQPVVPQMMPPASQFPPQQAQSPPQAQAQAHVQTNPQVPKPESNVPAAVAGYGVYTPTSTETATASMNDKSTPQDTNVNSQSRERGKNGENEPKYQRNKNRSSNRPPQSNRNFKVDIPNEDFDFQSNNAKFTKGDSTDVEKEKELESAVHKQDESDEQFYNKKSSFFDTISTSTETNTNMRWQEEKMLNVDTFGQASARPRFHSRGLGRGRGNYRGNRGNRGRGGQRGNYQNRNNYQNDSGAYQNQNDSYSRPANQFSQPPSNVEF

[2] = target: the molecule itself; assay: SEC; Sephacryl S-200 HR (45 ml, manual), 1 mg protein in 100 µl loaded, 20mM HEPES-KOH pH7.6, 100mM KCl, 10% glycerol; standards 200, 150, 66, 29 kDa
[3] = target: T2, HisSbp1FLAG (recombinant) (yeast, UniProt P10080 1-294); assay: pull-down; FLAG pull-down of purified Sbp1FLAG with purified Sbp1GFP or Sbp1GFPΔRGG in the presence of RNase A; 450 nM proteins; blots with anti-GFP and anti-FLAG; details: both partners purified
T2 construct: Sbp1, yeast; also called full-length Sbp1FLAG; source: E. coli XL1-Blue, purified (Ni-NTA)
T2 sequence (looked up): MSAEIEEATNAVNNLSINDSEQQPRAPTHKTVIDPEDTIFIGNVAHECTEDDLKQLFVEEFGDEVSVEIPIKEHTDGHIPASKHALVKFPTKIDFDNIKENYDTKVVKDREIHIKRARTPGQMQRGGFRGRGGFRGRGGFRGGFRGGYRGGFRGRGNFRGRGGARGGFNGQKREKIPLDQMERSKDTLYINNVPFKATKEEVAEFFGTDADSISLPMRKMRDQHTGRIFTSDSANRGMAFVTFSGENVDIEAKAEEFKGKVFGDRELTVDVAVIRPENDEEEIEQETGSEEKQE

B1: in vitro methylated Scd6FLAG (natural protein, yeast, UniProt P45978 1-349, looked up)
chain: MSQYIGKTISLISVTDNRYVGLLEDIDSEKGTVTLKEVRCFGTEGRKNWGPEEIYPNPTVYNSVKFNGSEVKDLSILDANINDIQPVVPQMMPPASQFPPQQAQSPPQAQAQAHVQTNPQVPKPESNVPAAVAGYGVYTPTSTETATASMNDKSTPQDTNVNSQSRERGKNGENEPKYQRNKNRSSNRPPQSNRNFKVDIPNEDFDFQSNNAKFTKGDSTDVEKEKELESAVHKQDESDEQFYNKKSSFFDTISTSTETNTNMRWQEEKMLNVDTFGQASARPRFHSRGLGRGRGNYRGNRGNRGRGGQRGNYQNRNNYQNDSGAYQNQNDSYSRPANQFSQPPSNVEF
modifications: arginine methylation by Hmt1 in vitro (stained by mono-methylarginine specific antibody); sites not given
notes: Scd6, yeast; Same protein as m4 after methylation; source: E. coli BL21, purified, then methylated in vitro by incubating with Hmt1 and SAM
[1]
  binding result: binds

B2: HisScd6FLAG (recombinant) (natural protein, yeast, UniProt P45978 1-349, looked up)
chain: MSQYIGKTISLISVTDNRYVGLLEDIDSEKGTVTLKEVRCFGTEGRKNWGPEEIYPNPTVYNSVKFNGSEVKDLSILDANINDIQPVVPQMMPPASQFPPQQAQSPPQAQAQAHVQTNPQVPKPESNVPAAVAGYGVYTPTSTETATASMNDKSTPQDTNVNSQSRERGKNGENEPKYQRNKNRSSNRPPQSNRNFKVDIPNEDFDFQSNNAKFTKGDSTDVEKEKELESAVHKQDESDEQFYNKKSSFFDTISTSTETNTNMRWQEEKMLNVDTFGQASARPRFHSRGLGRGRGNYRGNRGNRGRGGQRGNYQNRNNYQNDSGAYQNQNDSYSRPANQFSQPPSNVEF
notes: Scd6, yeast; predicted molecular mass of the purified protein about 41.5 kDa; also called purified Scd6; source: E. coli BL21, purified (HisTrap HP, HiTrap Heparin HP)
[2]
  stoichiometry N: 2

B3: HisSbp1GFP (recombinant) (natural protein, yeast, UniProt P10080 1-294, looked up)
chain: MSAEIEEATNAVNNLSINDSEQQPRAPTHKTVIDPEDTIFIGNVAHECTEDDLKQLFVEEFGDEVSVEIPIKEHTDGHIPASKHALVKFPTKIDFDNIKENYDTKVVKDREIHIKRARTPGQMQRGGFRGRGGFRGRGGFRGGFRGGYRGGFRGRGNFRGRGGARGGFNGQKREKIPLDQMERSKDTLYINNVPFKATKEEVAEFFGTDADSISLPMRKMRDQHTGRIFTSDSANRGMAFVTFSGENVDIEAKAEEFKGKVFGDRELTVDVAVIRPENDEEEIEQETGSEEKQE
notes: Sbp1, yeast, wild type; source: E. coli XL1-Blue, purified (Ni-NTA)
[3]
  binding result: binds
